A value given as a limit tells only on which side of the number the result lay.

The target of experiment [1] is α-synuclein fibrils. The experiment can be described thus: fluorescence spectroscopy of the fibrils formed; seeded fibrils formed with unlabelled monomeric α-synuclein and monomeric Alexa-568-β-synuclein, compared with fibrils formed with Alexa-568-α-synuclein; pH 6.5.
Experiment [2] concerns the target α-synuclein fibrils. The experiment can be described thus: microfluidic diffusional sizing; monomeric Alexa-568-β-synuclein incubated (15 min) with unlabelled α-synuclein fibrils at [α-synuclein fibrils]:[β-synuclein monomer] (M:M) of 5 and 40; conditions of the seeded kinetic experiments (pH 6.5); degree of binding estimated from the effective hydrodynamic radius.

Regarding “Alexa-568-β-synuclein, monomeric (from UniProt Q16143 1-134) (natural protein)”, the degree of incorporation into the fibrils in experiment [1] is less than 3%. In experiment [2], the degree of binding at [α-synuclein fibrils]:[β-synuclein monomer] ratio 5 was less than 5% and the degree of binding at [α-synuclein fibrils]:[β-synuclein monomer] ratio 40 was 10%.

Source of the values: article PMC5093550.
